Assay results as given in patent WO2018019380A1 (dated 2018).

Target: T1, CEACAM1 (as used for the Kd / Kon / Koff values) (human, UniProt P13688 35-428, limits assumed)
T1 sequence (looked up): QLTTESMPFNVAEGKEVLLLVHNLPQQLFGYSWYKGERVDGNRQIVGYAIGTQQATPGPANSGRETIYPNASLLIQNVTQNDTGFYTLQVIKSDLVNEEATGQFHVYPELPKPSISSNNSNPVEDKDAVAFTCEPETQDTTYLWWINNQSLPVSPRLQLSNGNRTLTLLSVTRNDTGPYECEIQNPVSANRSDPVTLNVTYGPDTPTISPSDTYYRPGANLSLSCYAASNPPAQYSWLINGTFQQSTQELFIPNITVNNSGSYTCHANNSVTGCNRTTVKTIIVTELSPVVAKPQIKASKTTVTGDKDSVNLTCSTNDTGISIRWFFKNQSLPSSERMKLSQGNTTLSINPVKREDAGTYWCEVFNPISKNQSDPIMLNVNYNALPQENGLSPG
Test: method not stated

B1: Anti-human CEACAM1 antibody (Clone 18-20) (antibody, V domains shown)
VH: KPGETVKISCKASGYTFTVYGMNWVKQAPGKDLKWMGWINTYTGEPTYADDFKGRFAFSLETSASTAYLQINNLKNEDMATYFCARKAFYRYDGGMDYWGQGTSVTVSS
VL: SSLSASLGGKVTITCKASQDINKFLAWYQHKPGKGPRLLIHYTSTLQPGIPSRFSGSGSGRDYSFSISNLEPEDIATYYCLQYDNLYTFGGGTKLEIK
notes: Mouse monoclonal antibody from hybridoma 18-20; also called Antikörper 18-20; antibody 18-20
Kd: 26 nM

B2: Anti-human CEACAM1 antibody (Clone B3-17) (antibody, V domains shown)
VH: GPELVKPGTSVKMSCKASGYTFTTYVMHWVQQKPGQGLDWIGFFNPYNDGTKYNEKFKGKATLTSDKSSSTAYMELSSLTSEDSAVYYCARWAYDGSYAYWGQGTTLTVSS
VL: SYLSVFLGGRVTITCKASDHINNWLAWYQQKPGNAPRLLISGATSLETGVPSRFSGSGSGKDYTLSIISLQTEDVATYYCQQYWRTPFTFGSGTKLEIK
notes: Mouse monoclonal antibody from hybridoma B3-17; also called Antikörper B3-17; antibody B3-17
Kd: 10 nM

B3: Anti-human CEACAM1 antibody (Clone 6G5J) (antibody, V domains shown)
VH: KPGETVKISCKTSGYIFRNYGMKWVKQAPGKGLKWMGWINTYTGEPTYADDFKGRFAFSLETSASTAYLQINNLKNEDMATYFCARRGMITTSNYALDNWGQGTSVTVSS
VL: SSLSASLGDRVTISCRASQDISNYLNWYQQKPDGTIKLLIYYTSKLHSGVPSRFSGSGSGTDYSLTISNLDQEDIATYFCQQGNTLPWTFGGGTKLEIK
notes: Mouse monoclonal antibody from hybridoma 6G5J; also called Antikörper 6G5J; antibody 6G5J
Kd: 23 nM
